Experimental findings from patent US9994881B2, “Functionalized carboxylic acids and alcohols by reverse fatty acid oxidation in engineered microbes” (William Marsh Rice University, priority 2011, dated 2018) are described below.

Series [1] in a line: forward thiolase assay (biosynthetic direction), coupled with caHBD. It counts as biochemical. The note with it: substrate Acetyl-CoA; supernatant fraction; AtoB expressed from pCA24N, FadA from pUCBB-ntH6. Here is the method:
(§1) Cultures for enzymatic assays were grown overnight in 100 mL of LB media at 37° C. in 250 mL baffled flasks (Wheaton Industries, Inc., Millville, N.J.) in E. coli BL21 (DE3) cells induced with either 1 mM IPTG (pCA24N, pTrcHis2A) or 1 mM Arabinose (pUCBB-pBAD) at an OD600˜0.6, or expressed constitutively (pUCBB-ntH6). Reactions were monitored on either a Synergy HT plate reader (BioTek Instruments, Inc., Winooski, Vt.) at 25° C. (for reactions monitored at 300 nm or higher) or in a Biomate 5 Spectrophotometer (Thermo Scientific, Waltham, Mass.) for reactions at 263 nm. […]
(§2) For kinetic characterization, his-tagged proteins of AtoB, FadA, FadB, caHBD, egTER were purified from the B-PER supernatant fractions using Talon Metal Affinity Resin (Clontech Laboratories, Inc., Mountain View, Calif.) using gravity purification. […] Enzyme concentration was established by measuring the absorbance at […] and extinction coefficients predicted for each enzyme by the ProtParam program (web.expasy.org/protparam/).
(§3) For kinetic characterization, an appropriate amount of enzyme was established by checking linear range near predicted KM values. Then, the rates were measured for a range of substrates in order to establish kcat and KM. […]

Series [2] in a line: thiolase activity in the reverse direction (loss of acetoacetyl-CoA at 303 nm). It counts as biochemical. The note with it: substrate Acetoacetyl-CoA; supernatant fraction; AtoB expressed from pCA24N, FadA from pUCBB-ntH6. Here is the method: as §1, §2, §3
Series [3] concerns the target T1, E. coli YciA (acyl-CoA thioesterase, NP_415769.1), wild type (Escherichia coli, UniProt P0A8Z0).
T1 sequence (P0A8Z0 1-132): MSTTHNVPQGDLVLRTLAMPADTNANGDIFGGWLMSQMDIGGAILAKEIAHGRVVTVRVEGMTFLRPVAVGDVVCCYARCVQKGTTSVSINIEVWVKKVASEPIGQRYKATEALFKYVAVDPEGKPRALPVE
As to the kind of experiment: Thioesterase kinetics (production of TNB at 412 nm). The note with it: pH 7.5, 200 mM KCl, DTNB, 25° C.
Description: Cells were lysed using Bacterial Protein Extraction Reagent (B-PER) (Thermo Scientific, Waltham, Mass.) as per the prescribed protocol in order to obtain the supernatant containing the active enzymes.
For kinetic characterization, an appropriate amount of enzyme was established by checking linear range near predicted KM values. Then, the rates were measured for a range of substrates in order to establish kcat and KM. In the cases of FadB for the crotonase reaction and FadA in the “forward” thiolase reaction coupled with HBD, substrate saturation could not be established, as such, the kcat/KM for the reaction was determined by dividing the linear slope of Velocity vs. [Substrate] by the amount of enzyme used in the assays. For reactions that could be saturated, Velocity vs. [Substrate] was fitted by the EnzKIN Matlab module (mathworks.com/matlabcentral/fileexchange/26653) to establish Vmax and KM.
Thioesterase activity was monitored by following the production of TNB at 412 nm (ε=4.3 mM^−1 cm^−1)^30. Reactions were carried out in the presence of 100 mM Tris pH 7.5, 200 mM KCl, 25 mM DTNB and 200 μM of the ‘-CoA’ substrate in a volume of 200 μL at 25° C.

Marks after values point to notes of the source that are not given here.

On to “AtoB: E. coli thiolase with higher specificity for short-chain acyl-CoA molecules”, for which the “Specific Activity” value in series [1] is given as 0.919 ± 0.002^b μmol/mg/min; in series [2] it was 0.36 ± 0.05^b μmol/mg/min.
Regarding `CC(=O)SCCNC(=O)CCNC(=O)[C@H](O)C(C)(C)COP(=O)(O)OP(=O)(O)OC[C@H]1O[C@@H](n2cnc3c(N)ncnc32)[C@H](O)[C@@H]1OP(=O)(O)O` [Acetyl-CoA], in series [3], the kcat stood at 6.9 ± 0.1 s⁻¹.
